We go through seven molecules from patent publication US20230235047A1 (Innovent, published 2023).

For test [1], the target named is T1, human CLDN18.1 on cells (CHO-hCLDN18.1) (human, UniProt P56856 1-261).
T1 construct: whole, on cells; also called human Claudin18.1
The test can be described thus: flow cytometry, hybridoma supernatant on CHO-hCLDN18.1. (A flow cytometer gives signals particle by particle.)

For test [2], the target named is T1, human CLDN18.1 on cells (CHO-hCLDN18.1). The test can be described thus: flow cytometry (FACS) on CHO-hCLDN18.1 cells. The method, then:
(§1) The binding of each of the above 9 antibodies to the CHO-S cell lines stably transfected with human CLDN18.2 and human CLDN18.1 (i.e., CHO-hCLDN18.2 and CHO-hCLDN18.1 prepared as described in the Examples) obtained in Example 1 was determined by flow cytometry (FACS). Reference was made to Example 2 for the experimental methods. The experimental data were analyzed using GraphPad Prism software, and FIGS. 1 and 2 were obtained.

The target of test [3] is T2, human Claudin18.2 protein (P50251802, GenScript) (human, UniProt P56856-2 1-261, limits assumed).
T2 construct: also called human CLDN18.2
Kind of test: BLI (Fortebio Octet Red96), AHC sensor, antibody and human Claudin18.2 protein (GenScript). The procedure: The equilibrium dissociation constant (KD) for binding of the antibodies of the present invention to human CLDN18.2 was determined by bio-layer interferometry (BLI). A BLI affinity assay was conducted according to the existing method (Estep, P et al., High throughput solution based measurement of antibody-antigen affinity and epitope binding. MAbs, 2013.5(2): p. 270-8). The AHC (18-5060, Fortebio) sensor was soaked in SD buffer (lx PBS, BSA 0.1%, Tween-20 0.05%). 100 μL of SD buffer, each antibody and human Claudin18.2 protein (P50251802, GenScript) were added to a 96-well black polystyrene half-area microplate (Greiner, 675076), respectively. The detection was performed using Fortebio Octet Red96, and the KD values were analyzed using Fortebio Octet analysis software.

The target in test [4] is T3, human CLDN18.2 on cells (CHO-hCLDN18.2, HEK293-hCLDN18.2, KATO III-hCLDN18.2, DAN-G-hCLDN18.2, NUGC-4) (human, UniProt P56856-2 1-261).
T3 construct: whole, on cells; NUGC-4 is used untransfected; also called human Claudin18.2
The test can be described thus: flow cytometry (FACS) on CHO-hCLDN18.2 cells, MFI against Log[Conc.(nM)]; EC50 from the table under the plot. The procedure:
as §1

B1: HB37A6 (antibody secreted by the hybridoma, culture supernatant) (antibody, V domains shown)
VH: EVQLLDSGGGLVQPGGSLRLSCAASGFTFSSYVMSWVRQAPGKGLNWVSTISHSGGSTYYADSVKGRFTISRDNSKNTLYLQMNSLRAEDTAVYYCAIDAPYYDILTGYRYWGQGTLVTVSS
VL: not shown
In the case of B1, in test [1], the binding result is “no binding”.

B2: 25C7 (antibody, human IgG1, kappa, V domains shown)
VH: EVMLVESGGGLVQPGGSRKLSCAASGFTFSDYGMAWVRQAPGKGPEWVAFINNLAYSIYYVDTVTGRFTISRENAKDTLYLEMSSLRSEDTALYYCARFTTGNVMDYWGQGTSVTVSS
VL: DIVMTQSPSSLTVTAGEKVTMTCKSSQSLLNGGNQKNYLTWYQQKPGQPPKLLIYWSSTRESGVPDRFTGSGSGTDFTLTITSVQAEDLAVYYCQNSYSYPLTFGSGTKLELKR
As usually defined, the Kd is the equilibrium constant for the complex coming apart. Read a low Kd as tighter binding. Broadly, the EC50 is the concentration giving half of the maximal effect. Lower therefore signals an effect from little substance. Consider B2, for which the binding result in test [2] is listed as “no binding”. For the same molecule, binding in test [3] was put at a Kd of 1.46 nM. Further, in test [4], the EC50 amounted to 13.6 nM.

B3: 51H10 (antibody, human IgG1, kappa, V domains shown)
VH: EVQLQQSVPELVKPGASVRMSCKASGYTFTKYIIQWVKQKPGQGLEWIAYINPYNDDTKYNEKFKGKATLTSDKSASTAYMELSSLTSEDSAVYYCATTYYGNSFPNWGQGTLVTVSA
VL: DIVMTQSPSSLTVTAGERVTMTCKSSQSLLNSGNQKNYLTWYQQKPGQPPKLLIYWASTRESGVPDRFTGSGSGTDFTLTISSLQSEDLAVYFCQNDYSFPFTFGSGTKLEIKR
In the case of B3, in test [2], the binding result is “no binding”. For the same molecule, the Kd in test [3] was 1.9 nM. A half-maximal effect in test [4] (EC50) was put at 7.51 nM.

B4: 3G3 (antibody, human IgG1, kappa, V domains shown)
VH: QVQLQQSGPQLVRPGASVKISCKASGYSFTTYWMHWVKQRPGQGLEWIGLIDPSDSETRLNQKFKDKATLTVDKSSSTAYMRLSSPTSEDSAVYYCASNRWLLGWGQGTLVTVSS
VL: DIQMIQSPSSLTVTAGEKVTMSCKSSQSLLNSGNQKNYLTWYQQKPGQPPKLLIYWASTRESGVPDRFTGSGSGTDFTLTISSVQTEDLAVYYCQNDYSYPLTFGAGTKLEIKR
For B4, the binding result in test [2] is “no binding”. In addition, the affinity in test [3], expressed as Kd, was 2.8 nM. The same molecule showed an EC50 in test [4] of 9.75 nM.

B5: 51H10 (antibody secreted by the hybridoma, culture supernatant) (antibody, V domains shown)
VH: EVQLQQSVPELVKPGASVRMSCKASGYTFTKYIIQWVKQKPGQGLEWIAYINPYNDDTKYNEKFKGKATLTSDKSASTAYMELSSLTSEDSAVYYCATTYYGNSFPNWGQGTLVTVSA
VL: DIVMTQSPSSLTVTAGERVTMTCKSSQSLLNSGNQKNYLTWYQQKPGQPPKLLIYWASTRESGVPDRFTGSGSGTDFTLTISSLQSEDLAVYFCQNDYSFPFTFGSGTKLEIK
For B5, the binding result in test [1] was “no binding”.

B6: 14A5 (antibody, human IgG1, kappa, V domains shown)
VH: QVQLKESGPGLVAPSQSLSITCSVSGFSLNSYGVGWVRQPPGKGLEWLGVIWGDGSTNYHSVLISRLSIRKDNSKSQVFLKLNSLQTDDTATYYCAMITRGNAMDYWGQGTSVTVSS
VL: DIVMTQSPSSLTVTAGEKITMSCKSSQSLLNSGNQRNYLTWYQQKPGQTPKLLIYWASTRKSGVPDRFTGSGSGTDFTLTISSVQAEDLAVYSCQNNYLFPLTFGAGTKLELKR
In the case of B6, the binding result in test [2] is given as “no binding”. Also, in test [3], the affinity, expressed as Kd, was 0.529 nM. Moreover, the EC50 in test [4] was determined as 5.49 nM.

B7: 59C1 (antibody, human IgG1, kappa, V domains shown)
VH: QVQLKESGPDLVKPSQSLSLTCTVTGYSITSGYGWNWIRQFPGNKLEWMGYIHFSGSTNYNPSLKSRISITRDTSKNQFFLQLNSVTTEDTATYYCARSGKGNAMDYWGQGTSVTVSS
VL: DIQMTQSPSSLTVTAGEKVTMSCKSSQSLLNSGNQKNYLTWYQQKPGQPPKLLIYWASTRESGVPDRFTGSGSGTDFTLTVINMQAEDLALYYCQNDYYFPFTFGSGTKLEIKR
Consider B7, for which the binding result in test [2] was “no binding”. The molecule further registered a Kd in test [3] of 1.01 nM. Besides, a half-maximal effect in test [4] (EC50) was put at 5.7 nM.
